Assay results: patent publication US20180258172A1

Key:
[1] = biological target: human zB7H6 (full-length, on cells) (human) (UniProt Q68D85); assay: competition flow cytometry, zB7H6-transfected P815 cells, 100-fold mass excess of isotype control antibody (no competition)
[2] = biological target: human zB7H6 (full-length, on cells) (human) (UniProt Q68D85); assay: competition flow cytometry, zB7H6-transfected P815 cells, 100-fold mass excess of isotype control antibody against NKp30/mFc2-biotin (no competition)

Chain of human zB7H6 (full-length, on cells) (human) (Q68D85 25-454): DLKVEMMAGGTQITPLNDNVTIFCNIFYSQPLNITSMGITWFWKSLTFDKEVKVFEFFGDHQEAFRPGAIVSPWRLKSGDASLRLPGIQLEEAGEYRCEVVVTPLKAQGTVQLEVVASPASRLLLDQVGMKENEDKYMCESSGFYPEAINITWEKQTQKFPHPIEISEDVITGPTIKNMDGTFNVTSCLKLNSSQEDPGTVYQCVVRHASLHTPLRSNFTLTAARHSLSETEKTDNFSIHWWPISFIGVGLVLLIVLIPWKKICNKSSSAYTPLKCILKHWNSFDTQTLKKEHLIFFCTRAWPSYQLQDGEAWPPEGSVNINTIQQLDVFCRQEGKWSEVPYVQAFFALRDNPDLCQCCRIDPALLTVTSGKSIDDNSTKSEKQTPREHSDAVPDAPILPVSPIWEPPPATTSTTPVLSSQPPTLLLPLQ

MFI of anti-zB7H6-A647 in the presence of the competitor [1]: 500
MFI of NKp30/mFc2-biotin in the presence of the competitor [2]: 775
Substance: isotype control antibody
